Measured values: publication doi:10.1101/2023.06.15.543498

target: E. coli 70S ribosomes without a bound tRNA (E. coli (endogenous in strain MRE600)) (UniProt P0A7L0); test: populations of particle classes in cryo-EM samples

Row | Kd | Substance
1 | 62 µM | EQ2-EttA (hydrolysis-deficient EQ2 mutant of E. coli EttA, Energy-dependent translation throttle A) (from UniProt P0A9W3 1-555) (enzyme)
2 | > 12 µM | EQ2-Uup (hydrolysis-deficient EQ2 mutant of E. coli Uup) (from UniProt P43672 1-635) (enzyme)
3 | 1.2 µM | EQ2-YbiT (hydrolysis-deficient EQ2 mutant of E. coli YbiT) (from UniProt P0A9U3 1-530) (enzyme)
4 | > 19 µM | EQ2-YheS (hydrolysis-deficient EQ2 mutant of E. coli YheS) (from UniProt P63389 1-637) (enzyme)
